Test results from the nanobody polyreactivity screen of Harvey et al. (2022).

Test: yeast display, Sf9 membrane polyspecificity reagent, FACS + sequencing; frameworks hold sequencing errors
In short: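 Polyreactivity labels are assigned by the sorting gate from which each nanobody was recovered. The gates were low and high (top ~1%), set on anti-HA fluorescence for expression and streptavidin fluorescence for reagent binding. Before sorting, galactose-induced (36–48 hours) yeast display cells were stained for 1 hour at 4 °C with 10% biotinylated, detergent-solubilized Sf9 membrane reagent.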

Sequence | polyreactivity (PSR sort gate)
QVQLVESGGGLVQAGGSLRLSCAASGRIFYGYAMGWYRQAPGKDRELVATISRSGARTHYADSVKGRFTISRDNAKNTVYLQMNSLKQEDTAVYYCAADVYLSRYEKYGYWGQGTQVTVSS | high polyreactivity
QVQLVESGGGLVQAGGSLRLSCAASGRIFYGYAMGWYRQAPGKEREFVAAITVSAGSTYYADSVKGRFTISRDNAKNTVYLQMNSLKPEDTAVYYCAAKRYVYPSYRFDYWGKGTQVTVSS | low polyreactivity
QVQLVESGGGLVQAGGSLRLSCAASGRIFYGYAMGWYRQAPGKERELVAAITRGGSTYYADSVKGRFTISRDNAKNTVYLQMNSLKPEDTAVYYCAAVIYSYRSYREYGYWGQGTQVTVSS | high polyreactivity
QVQLVESGGGLVQAGGSLRLSCAASGRIFYGYAMGWYRQAPGKERELVAAITSRGTSTYYADSVKGRFTISRDTAKNTVYLQMNSLKPEDTAVYYCNAAYGRSFYSKVFSYNYWGQGTQVTVSS | high polyreactivity
QVQLVESGGGLVQAGGSLRLSCAASGRIFYGYAMGWYRQAPGKERELVASISRRGSSTYYADSVKGRFTISRDNAKNTVYLQMNSLKPEDTAVYYCAKYTVQYAISHYDYWGQGTQVTVSS | high polyreactivity
QVQLVESGGGLVQAGGSLRLSCAASGRIFYGYAMGWYRQAPGKERELVASITVSRTSTYYADSVKGRFTISRDNAKNTVYLQMNSLKPEDTAVYYCAVGDGFEYDWGQGTQVTVSS | low polyreactivity
QVQLVESGGGLVQAGGSLRLSCAASGRIFYGYTMGWYRPAPGKERELVAAISRYGGSTYYADSVKGRFTISRDNAKKTVYLQMNSLKPEDTAVYYCNAVYSRGYVIKPYDYWGQGTQVTVSS | high polyreactivity
QVQLVESGGGLVQAGGSLRLSCAASGRIFYGYTMGWYRQAPGKERELVAAITWSGVSTYADSVKGRFTISRDNAKNTVYLQMNSLKPEDTAVYYCNADPIYGKRWRYYYWGQGTQVTVSS | high polyreactivity
QVQLVESGGGLVQAGGSLRLSCAASGRIFYHNAMGWYRQAPGKERELVAVISWSGTRTYYADSVKGRFTISRDNAKNTVYLQMNSLKPEDTAVYYFNVEPYYTSYWIYPYIYTYDYWGQGTQVTVSS | high polyreactivity
QVQLVESGGGLVQAGGSLRLSCAASGRIFYHYAMGWYRQPPGKESELVAAITWSGDSTYYADSVKGRFTISRDNAQNTVYLQMNSLKPEDTAVSYCATSSPYGVRRYSRGSWGQGTQVTVSS | high polyreactivity
QVQLVESGGGLVQAGGSLRLSCAASGRIFYINAMGWYIQAPGKERELVASITGSGGRTYYADSVKGRFTISRDNAKNTVYLQMNSLKPEDTAVYYCNADLYVGYLYYLYDYWGQGTQVTVSS | low polyreactivity
QVQLVESGGGLVQAGGSLRLSCAASGRIFYINAMGWYRQAPGTERELVAAITEGGVSTYYADSVKGRFTSSRDNAKNTVYLQMNSLKPEDTAVYYCNTTGGPDGIVIYEYWGQGTQVTVSS | low polyreactivity
QVQLVESGGGLVQAGGSLRLSCAASGRIFYIYAMGWFRQAPGKERELVAAITNGGSTNYADSVKGRFTISRDNAKNTVYLQMNSLKPEDTAVYYCAASVGTYAYARTVYRYDYWGQGTQVTVSS | low polyreactivity
QVQLVESGGGLVQAGGSLRLSCAASGRIFYIYTMGWYRPAPGKEREFVAGINWNGGSTYYADSVKGRFTISRDNAKNTVYLQMNSLKPEDTAVYYCNADQYWDRYYYWGQGTQVTVSS | low polyreactivity
QVQLVESGGGLVQAGGSLRLSCAASGRIFYKNVMVWYRQAPGKERELVAAISTSTGRTYYADSVKGRFTISRDNAKNTVYLEMNSLKPEDTAVYYCNAVRGHTNGVLYRYDYWGQGTQVTVSS | high polyreactivity
QVQLVESGGGLVQAGGSLRLSCAASGRIFYLNAMGWYRQAPGKERELVAAISGSTGSTYYADSVKGRFTISRDNAKNTVYLQMNSLKPEDTAVYYCNAGGVYDEFNYWGQGTQVTVSS | low polyreactivity
QVQLVESGGGLVQAGGSLRLSCAASGRIFYLYGMGWYRQAPGKERELVAGITGSGGNTYYADSVKGRFTISRDNAMNTVYLQMNSLKPEDTAVYYCIARFRARPRMGYWGQGTQVTLSS | high polyreactivity
QVQLVESGGGLVQAGGSLRLSCAASGRIFYLYTMGWYRQAPGKEREFSRYYADSVKGRFTISRDNAKNTVYLQMNCLKPEDTAVYSCAAADHPPVWYGYWGQGTHVTVSS | low polyreactivity
QVQLVESGGGLVQAGGSLRLSCAASGRIFYNNAMGWYRQAPGKERELVATISRGGSTNYADSVKGRFTISRDNAKNTVYLQMNSLKPEDTAVYYCAAVTTRSYGYEYWGQGTQVTVSS | low polyreactivity
QVQLVESGGGLVQAGGSLRLSCAASGRIFYNSVMGWYRQAPGKERELVAAISSSGGSTYYADSVKGRFTISRDNAKNTVYLQMNSLKPEDTAVYYCATTRRVPGEYWGQGTQVTVSS | high polyreactivity
QVQLVESGGGLVQAGGSLRLSCAASGRIFYNYAMGWYRQAPGKERELVAAISGSGGSTYYADSVKGRFTISRDNAKNTVYLQMNSLKPEDTAVYYCNADTVYTRTAPYDYWGQGSQVTVSS | low polyreactivity

Sequence | polyreactivity (PSR sort gate)
QVQLVESGGGLVQAGGSLRLSCAASGRIFYNYAMGWYRQAPGKERELVASINFSGTRTYYADSVKGRFTISRDNAKNTVYLQMNSLKPEDTAVYYCAARQAHGYYYWGQGTQVTVSS | high polyreactivity
QVQLVESGGGLVQAGGSLRLSCAASGRIFYPNAMGWYRQAPGKERELVAAITGRGGITYYADSVKGRFTISRDNAKNTVYLQMNSLKPEDTAVYYCNAAAYYPTNYGGYLFEYWGQGTQVTVSS | low polyreactivity
QVQLVESGGGLVQAGGSLRLSCAASGRIFYPNAMGWYRQAPGKERELVAGISSGGSTYYADSVKGRFTISRDNAKNTVYLQMNSLKPEDTAVYYCAARVYAHTSRRFLKYDYWGQGTQVTVSS | high polyreactivity
QVQLVESGGGLVQAGGSLRLSCAASGRIFYPYAMGLYRQAPGKEREFVADISSAGSTYYADSVKGRFTISRDNAKNTVYLQMNSLKPEDTAVYYCAADRTSGAYYFRFLYDRDYWGQGTQVTVSS | low polyreactivity
QVQLVESGGGLVQAGGSLRLSCAASGRIFYPYAMGWYRPAPGKERELVAAITVRGGRTYYADSVKWRFTISRDNAKNTVYLQMNSLKPEDTAVYYCNAVIGWYIGSRTYPHGPLQYDYWGQGTQVTLSS | high polyreactivity
QVQLVESGGGLVQAGGSLRLSCAASGRIFYPYAMGWYRQAPGKEREFVAAISYRGTSTFYADSVKGRFTISRDNAKNTVYLQMNSLKPEDTAVYYCAARVLWYGRATAAVTPYDYWGQGTQVTVSS | high polyreactivity
QVQLVESGGGLVQAGGSLRLSCAASGRIFYPYAMGWYRQAPGKERELVAAIDWTAGGTYYADSVKGRFTISRDNAKNTVYLQMNSLKPEDTAVYYCAAEYYIEANGDYWGLGTQVTVSS | low polyreactivity
QVQLVESGGGLVQAGGSLRLSCAASGRIFYPYAMGWYRQAPGKERELVAAIRISGGSTYYADSVKGRFTISRDNAKNTVYLQMISLNPEDTAVYYCNASARLQPAYSWFYYWGQGTQVTVSS | high polyreactivity
QVQLVESGGGLVQAGGSLRLSCAASGRIFYPYAMGWYRQAPGKERELVAAISYSGGSTFYADSVKGRFTISRDNAKNTVYLQMNSLKPEDTAVYYCIKPGLYIYGSWGQGTQVTVSS | high polyreactivity
QVQLVESGGGLVQAGGSLRLSCAASGRIFYPYAMGWYRQAPGKERELVASITSGGGTYYADSVKGRFTISRDNAKNSVYLQMNSLKPEDTAVYYCAAKYYTSWIRYDYWGQGTQVTVSS | low polyreactivity
QVQLVESGGGLVQAGGSLRLSCAASGRIFYPYAMGWYRQPPGKERELVAAIDKGGGSTYYADSVKGRFTISRDNAKNTVYLQMNSLKPEDTAVYYCAAGWEYPYDYWGQGTQVTVSS | low polyreactivity
QVQLVESGGGLVQAGGSLRLSCAASGRIFYQNTMGWYRQAPGKEREFVARINWSGGSTYYADSVKGRFTISRDNAKITVYLQMNSLKPEDTAVYYWAKASQSWGRDDYYYWGQGTQVTVSS | low polyreactivity
QVQLVESGGGLVQAGGSLRLSCAASGRIFYQNTMGWYRQAPGKERELVASISTTGGNTYYADSVKGRFTISRDNAKNTVYLQMNSLKPEDTAVYYCNAVRSVYLYGYIYGVDYWGQGTQVTVSS | low polyreactivity
QVQLVESGGGLVQAGGSLRLSCAASGRIFYRNAMGGSRQAPGKERELVAAISYSGGSTYYADSVKGRFTISRDNAKNTVYLQMNSLKPEDTAVYYCAAARDRWGNYWGQGTQVTVSS | high polyreactivity
QVQLVESGGGLVQAGGSLRLSCAASGRIFYRNAMGWYRQAPGKERELVAAINWSGGSTYYADSVKGRFTISRDNAKNTVYLQMNSLKPEDTAVYYCATGYRQGEYDYWGQGTQVTVSS | low polyreactivity
QVQLVESGGGLVQAGGSLRLSCAASGRIFYRNAMGWYRQAPGKERELVAAISSGGITNYADSVKGRFTISRDNAKNTVYLQMNSLKPEDTAVYYCNADAYRLPGYTFGYWGQGTQVTVSS | high polyreactivity
QVQLVESGGGLVQAGGSLRLSCAASGRIFYRNAMGWYRQAPGTDRELVARITSSGGTTYYADSVKGRFTISRDNAKNTVYLQMNSLQPEDTAVYYCAARSVTQRKMYYWGQGTQVTVSS | high polyreactivity
QVQLVESGGGLVQAGGSLRLSCAASGRIFYRYAMGCYRQAPGKERELVAGIRSRGGRTYYADSVKGRFTISRDNAKNTVYLQMNSLKPEDTAVYYCAARYLSGTSRYYYWGQGTQVTVSS | high polyreactivity
QVQLVESGGGLVQAGGSLRLSCAASGRIFYRYAMGWSRQAPGKERELVASITTSGDSTYYADSVKGRFTISRDNAKNTVYLQMNSLKPEDTAVYYCAARSYRGRRYDYWGQGTQVTVSS | high polyreactivity
QVQLVESGGGLVQAGGSLRLSCAASGRIFYRYAMGWYRQAPGKEMELVASITRSGITHYADSVKGRFTISRDNAKNTVYLQKNSLKPEDTEVYYCNARRGSPAPYDYWGQGTQVTVSS | high polyreactivity
